According to paper PMC2668526 (Bioorganic & medicinal chemistry, 2008):
Values joined by “and” are separate entries in the source; they are usually repeats but may differ in a detail not shown here. Equal values may be shown once.

What was measured:
Assay in all cases: purified protein, by the assay type
Conditions in all cases: other: O2 consumption, 5.0 mM ascorbate, pH 6.0, 37 °C
[1] = substrate: CC(Cc1ccccc1)C(=O)NCC(=O)O
[2] = substrate: O=C(O)CNC(=O)c1ccccc1
[3] = substrate: CC(=O)NCC(=O)NCC(=O)O
[4] = substrate: Cc1cccc(C(=O)NCC(=O)O)c1
[5] = substrate: CCc1ccc(C(=O)NCC(=O)O)cc1
[6] = substrate: O=C(O)CNC(=O)CCCc1ccccc1
[7] = substrate: O=C(O)CNC(=O)Nc1ccccc1
[8] = substrate: O=C(O)CNC(=O)c1ccc(O)cc1
[9] = substrate: C[C@@H](NC(=O)OCc1ccccc1)C(=O)O
[10] = substrate: O=C(O)CNC(=O)CNC(=O)CNC(=O)c1ccccc1
[11] = substrate: Cc1ccccc1C(=O)NCC(=O)O
[12] = substrate: Nc1ccccc1C(=O)NCC(=O)O
[13] = substrate: Cc1ccc(C(=O)NCC(=O)O)cc1
[14] = substrate: O=C(O)CNC(=O)c1ccc(C(F)(F)F)cc1
[15] = substrate: O=C(O)CNC(=O)c1c(F)cccc1F
[16] = substrate: CC(C)(C)OC(=O)NCC(=O)NCC(=O)O
[17] = substrate: O=C(O)CNC(=O)C1CC1c1ccccc1
[18] = substrate: CC(C)CCC(=O)NCC(=O)O
[19] = substrate: O=C(O)CNC(=O)OCc1ccccc1
[20] = substrate: O=C(O)CNC(=O)c1cccs1
[21] = substrate: O=C(O)CNC(=S)Cc1ccccc1
[22] = substrate: O=C(O)CNC(=O)CCCCCCCc1ccccc1
[23] = substrate: O=C(O)CNC(=O)CCCCCc1ccccc1
[24] = substrate: O=C(O)CNC(=O)Cc1ccccc1
[25] = substrate: CCCc1ccc(C(=O)NCC(=O)O)cc1
[26] = substrate: O=C(O)CNC(=O)[C@@H]1CCC(=O)N1
[27] = substrate: O=C(O)CNC(=O)/C=C/c1ccccc1

B1: rat PAM (Rattus norvegicus) (protein)
chain: FKETTRSFSNECLGTIGPVTPLDASDFALDIRMPGVTPKESDTYFCMSMRLPVDEEAFVIDFKPRASMDTVHHMLLFGCNMPSSTGSYWFCDEGTCTDKANILYAWARNAPPTRLPKGVGFRVGGETGSKYFVLQVHYGDISAFRDNHKDCSGVSVHLTRVPQPLIAGMYLMMSVDTVIPPGEKVVNADISCQYKMYPMHVFAYRVHTHHLGKVVSGYRVRNGQWTLIGRQNPQLPQAFYPVEHPVDVTFGDILAARCVFTGEGRTEATHIGGTSSDEMCNLYIMYYMEAKYALSFMTCTKNVAPDMFRTIPAEANIPIPVKPDMVMMHGHHKEAENKEKSALMQQPKQGEEEVLEQDFHVEEELDWPGVYLLPGQVSGVALDSKNNLVIFHRGDHVWDGNSFDSKFVYQQRGLGPIEEDTILVIDPNNAEILQSSGKNLFYLPHGLSIDTDGNYWVTDVALHQVFKLDPHSKEGPLLILGRSMQPGSDQNHFCQPTDVAVEPSTGAVFVSDGYCNSRIVQFSPSGKFVTQWGEESSGSSPRPGQFSVPHSLALVPHLDQLCVADRENGRIQCFKTDTKEFVREIKHASFGRNVFAISYIPGFLFAVNGKPYFGDQEPVQGFVMNFSSGEIIDVFKPVRKHFDMPHDIVASEDGTVYIGDAHTNTVWKFTLTEKMEHRSV
What does the source list for B1?
Km [1]: 4100 ± 300 µM; kcat [1]: 18 ± 0.9 s⁻¹; kcat/Km [1]: 4300 ± 100 M⁻¹ s⁻¹; Km [2]: 1300 ± 40 µM; kcat [2]: 8.2 ± 0.08 s⁻¹; kcat/Km [2]: 6200 ± 100 M⁻¹ s⁻¹; kcat [3]: 8.9 ± 0.2 s⁻¹; kcat/Km [3]: 5900 ± 200 M⁻¹ s⁻¹; Km [4]: 1400 ± 100 µM; kcat [4]: 6.4 ± 0.2 s⁻¹; kcat/Km [4]: 4700 ± 200 M⁻¹ s⁻¹; Km [5]: 1200 ± 200 µM; kcat [5]: 3.6 ± 0.3 s⁻¹; kcat/Km [5]: 3100 ± 500 M⁻¹ s⁻¹; Km [6]: 160 ± 20 µM; kcat [6]: 11 ± 0.4 s⁻¹; kcat/Km [6]: 70000 ± 7000 M⁻¹ s⁻¹; Km [7]: 0.36 ± 0.08 0.45 ± 0.05 mM; kcat [7]: 9.7 ± 0.9 s⁻¹; kcat/Km [7]: 27000 ± 4000 M⁻¹ s⁻¹; Km [8]: 1700 ± 100 µM; kcat [8]: 5.8 ± 0.1 s⁻¹; kcat/Km [8]: 3500 ± 200 M⁻¹ s⁻¹; Km [9]: 35000 ± 5000 µM; kcat [9]: 1.4 ± 0.1 s⁻¹; kcat/Km [9]: 41 ± 5 M⁻¹ s⁻¹; Km [10]: 310 ± 60 µM; kcat [10]: 8.8 ± 1.3 s⁻¹; kcat/Km [10]: 29000 ± 2000 M⁻¹ s⁻¹; Km [11]: 4300 ± 300 µM; kcat [11]: 7.9 ± 0.3 s⁻¹; kcat/Km [11]: 1800 ± 40 M⁻¹ s⁻¹; Km [12]: 1400 ± 100 µM; kcat [12]: 4.2 ± 0.1 s⁻¹; kcat/Km [12]: 2900 ± 100 M⁻¹ s⁻¹; Km [13]: 1800 ± 200 µM; kcat [13]: 5.7 ± 0.3 s⁻¹; kcat/Km [13]: 3200 ± 200 M⁻¹ s⁻¹; Km [14]: 770 ± 100 µM; kcat [14]: 2.8 ± 0.1 s⁻¹; kcat/Km [14]: 3600 ± 500 M⁻¹ s⁻¹; Km [15]: 19000 ± 4000 µM; kcat [15]: 4.3 ± 0.6 s⁻¹; kcat/Km [15]: 230 ± 20 M⁻¹ s⁻¹; Km [16]: 300 ± 30 µM; kcat [16]: 7.5 ± 0.2 s⁻¹; kcat/Km [16]: 25000 ± 1000 M⁻¹ s⁻¹; Km [17]: 900 ± 70 µM; kcat [17]: 10 ± 0.3 s⁻¹; kcat/Km [17]: 11000 ± 700 M⁻¹ s⁻¹; Km [18]: 280 ± 30 µM; kcat [18]: 6.6 ± 0.3 s⁻¹; kcat/Km [18]: 23000 ± 2000 M⁻¹ s⁻¹; Km [19]: 590 ± 20 µM; Km [20]: 1600 ± 100 µM; kcat/Km [20]: 6000 ± 300 M⁻¹ s⁻¹; Km [21]: 24 ± 5 µM; kcat [21]: 2.4 ± 0.2 s⁻¹; kcat/Km [21]: 100000 ± 20000 M⁻¹ s⁻¹; Km [22]: 0.10 ± 0.009 0.064 ± 0.006 mM; kcat [22]: 8 ± 0.3 s⁻¹; kcat/Km [22]: 76000 ± 4000 M⁻¹ s⁻¹; Km [23]: 0.051 ± 0.007 0.043 ± 0.005 mM; kcat [23]: 11 ± 0.4 s⁻¹; kcat/Km [23]: 200000 ± 20000 M⁻¹ s⁻¹; Km [24]: 160 ± 5 µM; kcat [24]: 7.4 s⁻¹; kcat/Km [24]: 46000 M⁻¹ s⁻¹; Km [25]: 1200 ± 200 µM; kcat [25]: 5.1 ± 0.4 s⁻¹; kcat/Km [25]: 4200 ± 600 M⁻¹ s⁻¹; Km [26]: 300 µM and 310 ± 30 µM; Km [27]: 230 ± 20 µM; kcat [27]: 8.4 ± 0.3 s⁻¹; kcat/Km [27]: 36000 ± 3000 M⁻¹ s⁻¹
